Experimental data: article PMC4815018, “Oligomerization as a strategy for cold adaptation: Structure and dynamics of the GH1 β-glucosidase from Exiguobacterium antarcticum B7” (Scientific Reports, 2016)

Tests used:
EaBglA = molecular target: T1, EaBglA (Exiguobacterium antarcticum, UniProt A0ABF7PFW8); test: colorimetric release of 4-nitrophenol at […] nm; type: biochemical; conditions: 0.5 mM pNPG, 20 nM enzyme, 40 mM sodium phosphate pH 7.0, 30 °C, 10 min; tetramer
T1 construct: gene bglA

[1] = molecular target: GH1 β-glucosidase from Exiguobacterium antarcticum B7 (Exiguobacterium antarcticum B7); test: SAXS; 1 and 2 mg/mL in 20 mM sodium phosphate, 150 mM NaCl, pH 7.4, 20 °C; experimental curve and ab initio model compared with the crystallographic tetramer
[2] = molecular target: GH1 β-glucosidase from Exiguobacterium antarcticum B7 (Exiguobacterium antarcticum B7); test: crystal structure; two crystal forms, P2(1) (0.1 M TRIS pH 8.5, 2% PEG400, 1.45 M lithium sulfate) and C222(1) (0.1 M CAPS pH 10.5, 0.2 M lithium sulfate, 2 M ammonium sulfate, in situ proteolysis with trypsin); 18 °C, protein at 15 mg/mL
[3] = molecular target: GH1 β-glucosidase from Exiguobacterium antarcticum B7 (Exiguobacterium antarcticum B7)
[4] = molecular target: GH1 β-glucosidase from Exiguobacterium antarcticum B7 (Exiguobacterium antarcticum B7); test: SEC; Superdex 75 16/60, 20 mM sodium phosphate, 150 mM NaCl, pH 7.5, 0.5 mL/min; two peaks (tetramers and monomers); samples at 4 mg/mL
[5] = molecular target: GH1 β-glucosidase from Exiguobacterium antarcticum B7 (Exiguobacterium antarcticum B7); test: AUC; sedimentation velocity, 35,000 rpm, 20 °C, 0.2, 0.4 and 1 mg/mL in 20 mM sodium phosphate, 150 mM NaCl, pH 7.4

T1 sequence (A0ABF7PFW8 entry or part of it): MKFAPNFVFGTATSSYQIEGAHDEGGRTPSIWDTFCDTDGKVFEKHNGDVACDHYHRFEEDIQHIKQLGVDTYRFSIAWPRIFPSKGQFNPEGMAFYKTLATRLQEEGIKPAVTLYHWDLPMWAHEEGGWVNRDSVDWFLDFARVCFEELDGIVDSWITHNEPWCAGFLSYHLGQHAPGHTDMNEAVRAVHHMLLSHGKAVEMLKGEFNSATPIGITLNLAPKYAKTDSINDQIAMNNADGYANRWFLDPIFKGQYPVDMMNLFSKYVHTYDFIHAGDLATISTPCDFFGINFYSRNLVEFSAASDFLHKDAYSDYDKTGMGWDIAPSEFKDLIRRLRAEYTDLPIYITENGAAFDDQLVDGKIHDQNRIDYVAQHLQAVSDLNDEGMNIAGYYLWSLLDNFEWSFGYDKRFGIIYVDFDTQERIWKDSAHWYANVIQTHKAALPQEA

Row | stoichiometry N [1] | stoichiometry N [2] | relative enzyme activity on pNPG (30 °C, pH 7.0, 20 nM enzyme) of the monomer fraction against the tetramer fraction [3] [fold] | stoichiometry N [4] | stoichiometry N [5] | Compound | relative activity (%) (EaBglA)
1 | – | – | – | – | – | O=[N+]([O-])c1ccc(O[C@@H]2O[C@H](CO)[C@@H](O)[C@H](O)[C@H]2O)cc1 [4-nitrophenyl β-D-glucopyranoside] | Enzyme activity was measured using the colorimetric substrate 4-nitrophenyl β-D-glucopyranoside (pNPG
2 | 4 | 4 | 10 | 4 | 4 | GH1 β-glucosidase from Exiguobacterium antarcticum B7 (enzyme) | –
